Blank lines part the entries; values can stand above or below the substance they belong to.
Tests used:
MPST (human) = MPST (human) (UniProt P25325); test: BioID-MS
AK3 (human) = AK3 (human) (UniProt Q9UIJ7); test: BioID-MS
ALDH1L2 (human) = ALDH1L2 (human) (UniProt Q3SY69); test: BioID-MS
MRPS16 (human) = MRPS16 (human) (UniProt Q9Y3D3); test: BioID-MS
FASTKD5 (human) = FASTKD5 (human) (UniProt Q7L8L6); test: BioID-MS
NADKD1 (human) = NADKD1 (human) (UniProt Q4G0N4); test: BioID-MS
COQ6 (human) = COQ6 (human) (UniProt Q9Y2Z9); test: BioID-MS
GLUD1 (human) = GLUD1 (human) (UniProt P00367); test: BioID-MS
MRPS26 (human) [1] = biological target: MRPS26 (human) (UniProt Q9BYN8); test: BioID-MS
CRAT (human) = CRAT (human) (UniProt P43155); test: BioID-MS
FASTKD2 (human) = FASTKD2 (human) (UniProt Q9NYY8); test: BioID-MS
HSD17B8 (human) = HSD17B8 (human) (UniProt Q92506); test: BioID-MS
COQ8A (human) = COQ8A (human) (UniProt Q8NI60); test: BioID-MS
MARS2 (human) = MARS2 (human) (UniProt Q96GW9); test: BioID-MS
NDUFA7 (human) = NDUFA7 (human) (UniProt O95182); test: BioID-MS
MRPS11 (human) = MRPS11 (human) (UniProt P82912); test: BioID-MS
SDHB (human) = SDHB (human) (UniProt P21912); test: BioID-MS
CLIC4 (human) = CLIC4 (human) (UniProt Q9Y696); test: BioID-MS
NFS1 (human) = NFS1 (human) (UniProt Q9Y697); test: BioID-MS
NMNAT3 (human) = NMNAT3 (human) (UniProt Q96T66); test: BioID-MS
MTPAP (human) = MTPAP (human) (UniProt Q9NVV4); test: BioID-MS
SUPV3L1 (human) = SUPV3L1 (human) (UniProt Q8IYB8); test: BioID-MS
RTN4IP1 (human) = RTN4IP1 (human) (UniProt Q8WWV3); test: BioID-MS
GUF1 (human) = GUF1 (human) (UniProt Q8N442); test: BioID-MS
C20orf7 (human) = C20orf7 (human) (UniProt Q5TEU4); test: BioID-MS
NDUFS8 (human) = NDUFS8 (human) (UniProt O00217); test: BioID-MS
C7orf55 (human) [2] = biological target: C7orf55 (human) (UniProt Q96HJ9); test: BioID-MS
PNPT1 (human) = PNPT1 (human) (UniProt Q8TCS8); test: BioID-MS
ETFB (human) = ETFB (human) (UniProt P38117); test: BioID-MS
MRPL45 (human) = MRPL45 (human) (UniProt Q9BRJ2); test: BioID-MS
MRPL55 (human) = MRPL55 (human) (UniProt Q7Z7F7); test: BioID-MS
GFM1 (human) [3] = biological target: GFM1 (human) (UniProt Q96RP9); test: BioID-MS
AIFM1 (human) = AIFM1 (human) (UniProt O95831); test: BioID-MS
HSPA1L (human) = HSPA1L (human) (UniProt P34931); test: BioID-MS
C8orf82 (human) = C8orf82 (human) (UniProt Q6P1X6); test: BioID-MS
ALDH6A1 (human) [4] = biological target: ALDH6A1 (human) (UniProt Q02252); test: BioID-MS
MGME1 (human) = MGME1 (human) (UniProt Q9BQP7); test: BioID-MS
MRM3 (human) = MRM3 (human) (UniProt Q9HC36); test: BioID-MS
C12orf10 (human) = C12orf10 (human) (UniProt Q9HB07); test: BioID-MS
NDUFS6 (human) = NDUFS6 (human) (UniProt O75380); test: BioID-MS
NDUFA12 (human) = NDUFA12 (human) (UniProt Q9UI09); test: BioID-MS
OXCT1 (human) = OXCT1 (human) (UniProt P55809); test: BioID-MS
POLRMT (human) = POLRMT (human) (UniProt O00411); test: BioID-MS
ACAD9 (human) = ACAD9 (human) (UniProt Q9H845); test: BioID-MS
BCS1L (human) = BCS1L (human) (UniProt Q9Y276); test: BioID-MS +ONC201
EFHA1 (human) = EFHA1 (human) (UniProt Q8IYU8); test: BioID-MS +ONC201
GLRX5 (human) = GLRX5 (human) (UniProt Q86SX6); test: BioID-MS +ONC201
MRPS26 (human) [5] = biological target: MRPS26 (human) (UniProt Q9BYN8); test: BioID-MS +ONC201
ABAT (human) = ABAT (human) (UniProt P80404); test: BioID-MS +ONC201
MRPL46 (human) = MRPL46 (human) (UniProt Q9H2W6); test: BioID-MS +ONC201
C7orf55 (human) [6] = biological target: C7orf55 (human) (UniProt Q96HJ9); test: BioID-MS +ONC201
MRPS17 (human) = MRPS17 (human) (UniProt Q9Y2R5); test: BioID-MS +ONC201
GFM1 (human) [7] = biological target: GFM1 (human) (UniProt Q96RP9); test: BioID-MS +ONC201
C2orf56 (human) = C2orf56 (human) (UniProt Q7L592); test: BioID-MS +ONC201
ALDH6A1 (human) [8] = biological target: ALDH6A1 (human) (UniProt Q02252); test: BioID-MS +ONC201
MTHFD1L (human) = MTHFD1L (human) (UniProt Q6UB35); test: BioID-MS +ONC201

Chain of ALDH6A1 (human) (Q02252 34-535 limits assumed): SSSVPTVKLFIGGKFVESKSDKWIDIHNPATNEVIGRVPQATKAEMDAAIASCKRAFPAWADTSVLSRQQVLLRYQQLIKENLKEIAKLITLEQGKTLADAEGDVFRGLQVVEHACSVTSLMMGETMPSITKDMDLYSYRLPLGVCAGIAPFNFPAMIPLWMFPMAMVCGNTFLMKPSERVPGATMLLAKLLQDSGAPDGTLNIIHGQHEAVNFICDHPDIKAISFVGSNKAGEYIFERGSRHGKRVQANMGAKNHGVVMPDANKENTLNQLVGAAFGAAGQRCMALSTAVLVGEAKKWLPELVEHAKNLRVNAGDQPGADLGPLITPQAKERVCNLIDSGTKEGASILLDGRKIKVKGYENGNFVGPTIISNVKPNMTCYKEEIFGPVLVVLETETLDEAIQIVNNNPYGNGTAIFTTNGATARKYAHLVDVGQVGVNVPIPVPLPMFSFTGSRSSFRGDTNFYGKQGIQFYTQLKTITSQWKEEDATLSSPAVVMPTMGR
Chain of C7orf55 (human) (Q96HJ9 whole entry): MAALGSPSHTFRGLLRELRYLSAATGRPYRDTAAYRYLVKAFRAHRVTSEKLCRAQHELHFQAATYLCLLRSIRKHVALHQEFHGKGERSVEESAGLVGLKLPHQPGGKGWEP
Chain of GFM1 (human) (Q96RP9 37-751 limits assumed): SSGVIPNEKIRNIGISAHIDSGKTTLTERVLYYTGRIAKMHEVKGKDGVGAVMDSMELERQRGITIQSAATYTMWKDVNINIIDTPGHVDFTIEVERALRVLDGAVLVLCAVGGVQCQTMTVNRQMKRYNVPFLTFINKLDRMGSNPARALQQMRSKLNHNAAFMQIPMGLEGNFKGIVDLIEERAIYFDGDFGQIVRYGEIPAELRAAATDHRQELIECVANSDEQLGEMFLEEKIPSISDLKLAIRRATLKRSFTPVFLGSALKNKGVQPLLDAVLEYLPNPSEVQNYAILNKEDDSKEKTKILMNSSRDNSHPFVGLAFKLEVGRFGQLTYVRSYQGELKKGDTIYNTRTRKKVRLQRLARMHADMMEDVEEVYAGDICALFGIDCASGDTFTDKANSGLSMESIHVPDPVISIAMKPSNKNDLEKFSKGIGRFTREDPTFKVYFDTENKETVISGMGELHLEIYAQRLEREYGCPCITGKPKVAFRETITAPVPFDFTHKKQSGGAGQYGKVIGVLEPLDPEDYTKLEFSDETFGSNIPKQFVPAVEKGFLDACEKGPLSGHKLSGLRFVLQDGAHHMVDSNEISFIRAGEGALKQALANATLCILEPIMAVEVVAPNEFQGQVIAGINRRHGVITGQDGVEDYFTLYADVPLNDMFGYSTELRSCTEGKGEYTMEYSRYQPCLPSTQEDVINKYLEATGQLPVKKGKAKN
Chain of ABAT (human) (P80404 29-500 limits assumed): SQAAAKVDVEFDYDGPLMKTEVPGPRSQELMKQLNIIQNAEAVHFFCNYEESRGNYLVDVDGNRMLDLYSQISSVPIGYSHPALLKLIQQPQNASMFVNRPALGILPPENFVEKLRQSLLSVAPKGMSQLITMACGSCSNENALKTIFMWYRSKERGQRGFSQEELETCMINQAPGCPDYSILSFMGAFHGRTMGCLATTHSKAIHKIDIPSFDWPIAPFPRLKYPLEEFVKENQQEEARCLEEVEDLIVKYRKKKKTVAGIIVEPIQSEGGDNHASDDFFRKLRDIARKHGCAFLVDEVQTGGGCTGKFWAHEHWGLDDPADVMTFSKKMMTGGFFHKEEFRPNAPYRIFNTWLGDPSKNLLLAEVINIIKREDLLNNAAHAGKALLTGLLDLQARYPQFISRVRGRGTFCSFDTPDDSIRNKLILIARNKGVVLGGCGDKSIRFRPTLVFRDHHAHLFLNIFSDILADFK
Chain of C8orf82 (human) (Q6P1X6 whole entry): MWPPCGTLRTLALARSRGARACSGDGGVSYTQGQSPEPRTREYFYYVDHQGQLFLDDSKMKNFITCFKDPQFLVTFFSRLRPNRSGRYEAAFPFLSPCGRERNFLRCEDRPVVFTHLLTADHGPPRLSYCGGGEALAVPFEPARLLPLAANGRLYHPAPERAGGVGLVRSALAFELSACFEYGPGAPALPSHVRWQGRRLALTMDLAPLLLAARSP
Chain of NDUFS6 (human) (O75380 29-124 limits assumed): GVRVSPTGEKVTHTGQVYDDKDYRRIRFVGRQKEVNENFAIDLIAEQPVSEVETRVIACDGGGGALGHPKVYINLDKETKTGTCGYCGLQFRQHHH
Chain of MGME1 (human) (Q9BQP7 whole entry): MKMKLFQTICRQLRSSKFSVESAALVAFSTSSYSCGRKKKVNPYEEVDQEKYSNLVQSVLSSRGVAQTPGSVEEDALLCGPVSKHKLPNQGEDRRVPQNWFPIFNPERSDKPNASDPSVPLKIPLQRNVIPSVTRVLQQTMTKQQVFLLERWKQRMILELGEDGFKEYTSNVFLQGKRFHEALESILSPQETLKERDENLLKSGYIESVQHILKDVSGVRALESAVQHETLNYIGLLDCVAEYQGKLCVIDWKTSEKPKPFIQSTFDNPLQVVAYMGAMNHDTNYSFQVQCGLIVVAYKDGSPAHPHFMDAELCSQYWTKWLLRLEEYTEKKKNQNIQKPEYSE
Chain of PNPT1 (human) (Q8TCS8 46-783 limits assumed): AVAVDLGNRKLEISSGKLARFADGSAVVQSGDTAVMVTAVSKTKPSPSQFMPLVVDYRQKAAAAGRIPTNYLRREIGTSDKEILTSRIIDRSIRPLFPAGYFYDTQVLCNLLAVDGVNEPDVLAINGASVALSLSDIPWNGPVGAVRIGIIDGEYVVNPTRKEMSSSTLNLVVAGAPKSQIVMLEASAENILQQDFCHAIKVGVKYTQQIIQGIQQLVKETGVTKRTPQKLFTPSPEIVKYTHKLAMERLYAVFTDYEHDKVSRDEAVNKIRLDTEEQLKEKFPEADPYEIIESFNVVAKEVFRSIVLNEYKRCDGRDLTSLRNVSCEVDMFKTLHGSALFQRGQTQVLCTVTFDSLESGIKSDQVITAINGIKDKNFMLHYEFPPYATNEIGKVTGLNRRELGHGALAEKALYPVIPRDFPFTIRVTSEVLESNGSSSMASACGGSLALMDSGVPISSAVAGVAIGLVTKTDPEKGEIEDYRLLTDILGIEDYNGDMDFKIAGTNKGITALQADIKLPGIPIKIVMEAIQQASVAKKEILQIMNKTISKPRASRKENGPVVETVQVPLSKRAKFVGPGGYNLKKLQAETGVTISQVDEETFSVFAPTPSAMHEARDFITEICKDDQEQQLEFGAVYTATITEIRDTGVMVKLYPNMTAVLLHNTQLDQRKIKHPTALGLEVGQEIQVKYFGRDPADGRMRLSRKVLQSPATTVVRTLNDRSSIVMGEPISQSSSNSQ
Chain of MPST (human) (P25325 2-297 limits assumed): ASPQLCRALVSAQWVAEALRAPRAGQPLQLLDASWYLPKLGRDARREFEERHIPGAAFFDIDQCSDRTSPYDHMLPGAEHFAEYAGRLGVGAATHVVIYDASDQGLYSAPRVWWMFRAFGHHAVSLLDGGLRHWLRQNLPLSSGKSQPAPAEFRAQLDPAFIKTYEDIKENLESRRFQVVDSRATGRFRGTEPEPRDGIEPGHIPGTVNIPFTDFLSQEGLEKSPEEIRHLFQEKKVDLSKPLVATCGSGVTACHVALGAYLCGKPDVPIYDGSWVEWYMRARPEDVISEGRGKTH
Chain of POLRMT (human) (O00411 42-1230 limits assumed): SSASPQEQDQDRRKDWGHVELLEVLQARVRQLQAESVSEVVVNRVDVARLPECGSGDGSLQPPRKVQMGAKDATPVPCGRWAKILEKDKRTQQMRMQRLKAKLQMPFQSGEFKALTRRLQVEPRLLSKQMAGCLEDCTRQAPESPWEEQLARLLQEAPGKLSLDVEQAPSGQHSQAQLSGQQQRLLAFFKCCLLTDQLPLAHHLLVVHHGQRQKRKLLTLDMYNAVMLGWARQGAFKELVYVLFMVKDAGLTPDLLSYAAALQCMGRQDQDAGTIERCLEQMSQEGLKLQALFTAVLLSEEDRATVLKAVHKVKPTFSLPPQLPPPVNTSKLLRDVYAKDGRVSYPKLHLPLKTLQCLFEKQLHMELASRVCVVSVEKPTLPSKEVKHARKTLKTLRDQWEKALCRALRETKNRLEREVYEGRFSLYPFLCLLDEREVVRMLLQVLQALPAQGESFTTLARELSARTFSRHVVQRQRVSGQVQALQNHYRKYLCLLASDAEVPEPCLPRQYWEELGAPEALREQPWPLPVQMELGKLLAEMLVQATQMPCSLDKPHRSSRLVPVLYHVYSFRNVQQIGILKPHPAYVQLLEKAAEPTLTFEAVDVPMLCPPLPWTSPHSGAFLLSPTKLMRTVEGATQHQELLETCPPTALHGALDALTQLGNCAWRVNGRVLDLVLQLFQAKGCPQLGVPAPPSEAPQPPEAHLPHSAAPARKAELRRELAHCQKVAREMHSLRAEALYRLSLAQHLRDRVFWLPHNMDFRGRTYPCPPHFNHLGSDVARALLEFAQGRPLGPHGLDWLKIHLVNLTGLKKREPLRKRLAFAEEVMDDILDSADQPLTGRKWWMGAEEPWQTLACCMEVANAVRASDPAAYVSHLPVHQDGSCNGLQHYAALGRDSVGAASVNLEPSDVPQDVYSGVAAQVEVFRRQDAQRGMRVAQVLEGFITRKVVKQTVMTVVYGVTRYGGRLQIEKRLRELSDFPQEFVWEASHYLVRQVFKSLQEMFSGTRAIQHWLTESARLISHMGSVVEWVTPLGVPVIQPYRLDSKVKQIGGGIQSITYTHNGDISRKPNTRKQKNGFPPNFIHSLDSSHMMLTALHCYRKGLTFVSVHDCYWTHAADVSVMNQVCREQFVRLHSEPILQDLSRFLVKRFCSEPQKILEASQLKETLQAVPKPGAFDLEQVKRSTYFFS
Chain of AK3 (human) (Q9UIJ7 whole entry): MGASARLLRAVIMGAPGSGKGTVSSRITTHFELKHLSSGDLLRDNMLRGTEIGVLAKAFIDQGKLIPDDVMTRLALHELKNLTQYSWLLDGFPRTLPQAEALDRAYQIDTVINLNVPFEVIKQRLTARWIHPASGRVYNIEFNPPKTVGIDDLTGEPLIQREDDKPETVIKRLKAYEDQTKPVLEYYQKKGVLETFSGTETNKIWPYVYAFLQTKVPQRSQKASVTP

Log2 Fold change (vs control) (MPST (human)): -1.29 log2
Log2 Fold change (vs control) (AK3 (human)): -0.28 log2
Log2 Fold change (vs control) (ALDH1L2 (human)): -0.69 log2
Log2 Fold change (vs control) (MRPS16 (human)): 0.1 log2
Log2 Fold change (vs control) (FASTKD5 (human)): 1.05 log2
Log2 Fold change (vs control) (NADKD1 (human)): -1.04 log2
Log2 Fold change (vs control) (COQ6 (human)): 0.62 log2
Log2 Fold change (vs control) (GLUD1 (human)): -0.39 log2
Log2 Fold change (vs control) (MRPS26 (human) [1]): -0.52 log2
Log2 Fold change (vs control) (CRAT (human)): -3 log2
Log2 Fold change (vs control) (FASTKD2 (human)): 0.71 log2
Log2 Fold change (vs control) (HSD17B8 (human)): -2.58 log2
Log2 Fold change (vs control) (COQ8A (human)): -0.67 log2
Log2 Fold change (vs control) (MARS2 (human)): 0.23 log2
Log2 Fold change (vs control) (NDUFA7 (human)): -2.22 log2
Log2 Fold change (vs control) (MRPS11 (human)): -0.34 log2
Log2 Fold change (vs control) (SDHB (human)): -0.6 log2
Log2 Fold change (vs control) (CLIC4 (human)): -2.81 log2
Log2 Fold change (vs control) (NFS1 (human)): 0.25 log2
Log2 Fold change (vs control) (NMNAT3 (human)): -4 log2
Log2 Fold change (vs control) (MTPAP (human)): -0.78 log2
Log2 Fold change (vs control) (SUPV3L1 (human)): 0.56 log2
Log2 Fold change (vs control) (RTN4IP1 (human)): -0.52 log2
Log2 Fold change (vs control) (GUF1 (human)): 0.38 log2
Log2 Fold change (vs control) (C20orf7 (human)): -0.06 log2
Log2 Fold change (vs control) (NDUFS8 (human)): 0.19 log2
Log2 Fold change (vs control) (C7orf55 (human) [2]): -0.74 log2
Log2 Fold change (vs control) (PNPT1 (human)): -0.07 log2
Log2 Fold change (vs control) (ETFB (human)): 0.4 log2
Log2 Fold change (vs control) (MRPL45 (human)): -0.29 log2
Log2 Fold change (vs control) (MRPL55 (human)): -0.2 log2
Log2 Fold change (vs control) (GFM1 (human) [3]): -0.26 log2
Log2 Fold change (vs control) (AIFM1 (human)): -2.32 log2
Log2 Fold change (vs control) (HSPA1L (human)): -0.71 log2
Log2 Fold change (vs control) (C8orf82 (human)): 1.6 log2
Log2 Fold change (vs control) (ALDH6A1 (human) [4]): -1.22 log2
Log2 Fold change (vs control) (MGME1 (human)): 0.44 log2
Log2 Fold change (vs control) (MRM3 (human)): 0.14 log2
Log2 Fold change (vs control) (C12orf10 (human)): -3.75 log2
Log2 Fold change (vs control) (NDUFS6 (human)): -0.26 log2
Log2 Fold change (vs control) (NDUFA12 (human)): -1.02 log2
Log2 Fold change (vs control) (OXCT1 (human)): -0.95 log2
Log2 Fold change (vs control) (POLRMT (human)): 0.57 log2
Log2 Fold change (vs control) (ACAD9 (human)): 1.18 log2
Substance: FlagBirA-ClpP (Y118A) (from UniProt P06709 1-321; Q16740 57-277) (enzyme)

Log2 Fold change (vs control) (BCS1L (human)): -0.17 log2
Log2 Fold change (vs control) (EFHA1 (human)): -0.47 log2
Log2 Fold change (vs control) (GLRX5 (human)): -5.21 log2
Log2 Fold change (vs control) (MRPS26 (human) [5]): -6.38 log2
Log2 Fold change (vs control) (ABAT (human)): -2.58 log2
Log2 Fold change (vs control) (MRPL46 (human)): -6.09 log2
Log2 Fold change (vs control) (C7orf55 (human) [6]): -1.18 log2
Log2 Fold change (vs control) (MRPS17 (human)): -4.25 log2
Log2 Fold change (vs control) (GFM1 (human) [7]): -1.08 log2
Log2 Fold change (vs control) (C2orf56 (human)): -2.44 log2
Log2 Fold change (vs control) (ALDH6A1 (human) [8]): -3.81 log2
Log2 Fold change (vs control) (MTHFD1L (human)): -0.39 log2
Substance: FlagBirA-ClpP (WT) (from UniProt P06709 1-321; Q16740 57-277) (enzyme)

From patent US20220143024A1, “METHODS OF USING IMIPRIDONES” (Board of Regents, The University of Texas System, priority 2019, published 2022)
